# Target: T1, MHC class I molecule A*0201 (biotin (bound to streptavidin-coated plate))
# T1 construct: also called A2; HLA-A2
# Assay: iTopia iScore
# Procedure: (§1) The 9 mers were tested for Peptide Binding, Off Rate and Affinity using iTopia Epitope Discovery System in accordance with the manufacturer's instructions. Briefly, 96 well microtitre plates coated with MHC molecules representing different MHC alleles are used to identify candidate peptides. […] Determinations are performed in duplicate using an ELISA plate reader and included allele specific positive controls.
# (§2) Finally, multiparametric analysis is performed on the results from these assays and an iScore is generated. The iScore represents a measure of the overall quality of peptide-MHC binding, enabling candidate peptides to be ranked in order of binding quality and allowing rational prioritisation of peptides for functional cellular follow-up studies.
row,Binder,iScore
1,RQLDLSHNP [5T4 9-mer peptide 73 RQLDLSHNP],0
2,LDLSHNPLA [5T4 9-mer peptide 74 LDLSHNPLA],0.226
3,AFSGSNASV [5T4 9-mer peptide 81 AFSGSNASV],0.116
4,LPSLRQLDL [5T4 9-mer peptide 71 LPSLRQLDL],0.098
5,LPSLRHLDL [5T4 9-mer peptide 117 LPSLRHLDL],0.028
6,AFEHLPSLR [5T4 9-mer peptide 69 AFEHLPSLR],0
7,ILNHIVPPE [5T4 9-mer peptide 90 ILNHIVPPE],0.426
8,HNPLADLSP [5T4 9-mer peptide 76 HNPLADLSP],0
9,VSAPSPLVE [5T4 9-mer peptide 85 VSAPSPLVE],0
10,IVPPEDERQ [5T4 9-mer peptide 92 IVPPEDERQ],0
11,ASVSAPSPL [5T4 9-mer peptide 84 ASVSAPSPL],0.059
12,PLADLSPFA [5T4 9-mer peptide 77 PLADLSPFA],0.556
13,ADLSPFAFS [5T4 9-mer peptide 78 ADLSPFAFS],0.116
14,SPLVELILN [5T4 9-mer peptide 87 SPLVELILN],0.094
15,GMVVAALLA [5T4 9-mer peptide 99 GMVVAALLA],0.384
16,EDERQNRSF [5T4 9-mer peptide 94 EDERQNRSF],0
17,VVAALLAGR [5T4 9-mer peptide 100 VVAALLAGR],0
18,SGSNASVSA [5T4 9-mer peptide 82 SGSNASVSA],0

row,Binder,iScore
1,SNASVSAPS [5T4 9-mer peptide 83 SNASVSAPS],0.154
2,RSFEGMVVA [5T4 9-mer peptide 97 RSFEGMVVA],0.189
3,NHIVPPEDE [5T4 9-mer peptide 91 NHIVPPEDE],0
4,PPEDERQNR [5T4 9-mer peptide 93 PPEDERQNR],0
5,APSPLVELI [5T4 9-mer peptide 86 APSPLVELI],0
6,FEGMVVAAL [5T4 9-mer peptide 98 FEGMVVAAL],0.051
7,AGAFEHLPS [5T4 9-mer peptide 68 AGAFEHLPS],0
8,LSHNPLADL [5T4 9-mer peptide 75 LSHNPLADL],0.095
9,LVELILNHI [5T4 9-mer peptide 88 LVELILNHI],0.109
10,ELILNHIVP [5T4 9-mer peptide 89 ELILNHIVP],0.067
11,LSPFAFSGS [5T4 9-mer peptide 79 LSPFAFSGS],0.064
12,EHLPSLRQL [5T4 9-mer peptide 70 EHLPSLRQL],0.046
13,SLRQLDLSH [5T4 9-mer peptide 72 SLRQLDLSH],0
14,PFAFSGSNA [5T4 9-mer peptide 80 PFAFSGSNA],0
15,VRAGAFEHL [5T4 9-mer peptide 67 VRAGAFEHL],0
16,QNRSFEGMV [5T4 9-mer peptide 96 QNRSFEGMV],0.052
17,ERQNRSFEG [5T4 9-mer peptide 95 ERQNRSFEG],0
18,DEVRAGAFE [5T4 9-mer peptide 66 DEVRAGAFE],0

# Target: T2, MHC class I molecule B*0702 (biotin (bound to streptavidin-coated plate))
# T2 construct: also called B7; HLA-B7
# Assay: iTopia iScore
# Procedure: as §1, §2
row,Binder,iScore
1,RQLDLSHNP [5T4 9-mer peptide 73 RQLDLSHNP],0
2,LDLSHNPLA [5T4 9-mer peptide 74 LDLSHNPLA],0
3,AFSGSNASV [5T4 9-mer peptide 81 AFSGSNASV],0
4,LPSLRQLDL [5T4 9-mer peptide 71 LPSLRQLDL],0.454
5,LPSLRHLDL [5T4 9-mer peptide 117 LPSLRHLDL],0.445
6,AFEHLPSLR [5T4 9-mer peptide 69 AFEHLPSLR],0
7,ILNHIVPPE [5T4 9-mer peptide 90 ILNHIVPPE],0
8,HNPLADLSP [5T4 9-mer peptide 76 HNPLADLSP],0
9,VSAPSPLVE [5T4 9-mer peptide 85 VSAPSPLVE],0
10,IVPPEDERQ [5T4 9-mer peptide 92 IVPPEDERQ],0
11,ASVSAPSPL [5T4 9-mer peptide 84 ASVSAPSPL],0.017
12,PLADLSPFA [5T4 9-mer peptide 77 PLADLSPFA],0
13,ADLSPFAFS [5T4 9-mer peptide 78 ADLSPFAFS],0
14,SPLVELILN [5T4 9-mer peptide 87 SPLVELILN],0
15,GMVVAALLA [5T4 9-mer peptide 99 GMVVAALLA],0
16,EDERQNRSF [5T4 9-mer peptide 94 EDERQNRSF],0
17,VVAALLAGR [5T4 9-mer peptide 100 VVAALLAGR],0
18,SGSNASVSA [5T4 9-mer peptide 82 SGSNASVSA],0

row,Binder,iScore
1,SNASVSAPS [5T4 9-mer peptide 83 SNASVSAPS],0
2,RSFEGMVVA [5T4 9-mer peptide 97 RSFEGMVVA],0
3,NHIVPPEDE [5T4 9-mer peptide 91 NHIVPPEDE],0
4,PPEDERQNR [5T4 9-mer peptide 93 PPEDERQNR],0
5,APSPLVELI [5T4 9-mer peptide 86 APSPLVELI],0.101
6,FEGMVVAAL [5T4 9-mer peptide 98 FEGMVVAAL],0
7,AGAFEHLPS [5T4 9-mer peptide 68 AGAFEHLPS],0
8,LSHNPLADL [5T4 9-mer peptide 75 LSHNPLADL],0
9,LVELILNHI [5T4 9-mer peptide 88 LVELILNHI],0
10,ELILNHIVP [5T4 9-mer peptide 89 ELILNHIVP],0
11,LSPFAFSGS [5T4 9-mer peptide 79 LSPFAFSGS],0
12,EHLPSLRQL [5T4 9-mer peptide 70 EHLPSLRQL],0
13,SLRQLDLSH [5T4 9-mer peptide 72 SLRQLDLSH],0
14,PFAFSGSNA [5T4 9-mer peptide 80 PFAFSGSNA],0
15,VRAGAFEHL [5T4 9-mer peptide 67 VRAGAFEHL],0.085
16,QNRSFEGMV [5T4 9-mer peptide 96 QNRSFEGMV],0
17,ERQNRSFEG [5T4 9-mer peptide 95 ERQNRSFEG],0
18,DEVRAGAFE [5T4 9-mer peptide 66 DEVRAGAFE],0

# Target: T3, MHC class I molecule A*0301 (biotin (bound to streptavidin-coated plate))
# T3 construct: also called A3; HLA-A3
# Assay: iTopia iScore
# Procedure: as §1, §2
row,Binder,iScore
1,RQLDLSHNP [5T4 9-mer peptide 73 RQLDLSHNP],0
2,LDLSHNPLA [5T4 9-mer peptide 74 LDLSHNPLA],0
3,AFSGSNASV [5T4 9-mer peptide 81 AFSGSNASV],0
4,LPSLRQLDL [5T4 9-mer peptide 71 LPSLRQLDL],0
5,LPSLRHLDL [5T4 9-mer peptide 117 LPSLRHLDL],0
6,AFEHLPSLR [5T4 9-mer peptide 69 AFEHLPSLR],0
7,ILNHIVPPE [5T4 9-mer peptide 90 ILNHIVPPE],0
8,HNPLADLSP [5T4 9-mer peptide 76 HNPLADLSP],0
9,VSAPSPLVE [5T4 9-mer peptide 85 VSAPSPLVE],0
10,IVPPEDERQ [5T4 9-mer peptide 92 IVPPEDERQ],0
11,ASVSAPSPL [5T4 9-mer peptide 84 ASVSAPSPL],0
12,PLADLSPFA [5T4 9-mer peptide 77 PLADLSPFA],0
13,ADLSPFAFS [5T4 9-mer peptide 78 ADLSPFAFS],0
14,SPLVELILN [5T4 9-mer peptide 87 SPLVELILN],0
15,GMVVAALLA [5T4 9-mer peptide 99 GMVVAALLA],0
16,EDERQNRSF [5T4 9-mer peptide 94 EDERQNRSF],0
17,VVAALLAGR [5T4 9-mer peptide 100 VVAALLAGR],0.125
18,SGSNASVSA [5T4 9-mer peptide 82 SGSNASVSA],0

row,Binder,iScore
1,SNASVSAPS [5T4 9-mer peptide 83 SNASVSAPS],0
2,RSFEGMVVA [5T4 9-mer peptide 97 RSFEGMVVA],0
3,NHIVPPEDE [5T4 9-mer peptide 91 NHIVPPEDE],0
4,PPEDERQNR [5T4 9-mer peptide 93 PPEDERQNR],0
5,APSPLVELI [5T4 9-mer peptide 86 APSPLVELI],0
6,FEGMVVAAL [5T4 9-mer peptide 98 FEGMVVAAL],0
7,AGAFEHLPS [5T4 9-mer peptide 68 AGAFEHLPS],0
8,LSHNPLADL [5T4 9-mer peptide 75 LSHNPLADL],0
9,LVELILNHI [5T4 9-mer peptide 88 LVELILNHI],0
10,ELILNHIVP [5T4 9-mer peptide 89 ELILNHIVP],0
11,LSPFAFSGS [5T4 9-mer peptide 79 LSPFAFSGS],0
12,EHLPSLRQL [5T4 9-mer peptide 70 EHLPSLRQL],0
13,SLRQLDLSH [5T4 9-mer peptide 72 SLRQLDLSH],0
14,PFAFSGSNA [5T4 9-mer peptide 80 PFAFSGSNA],0
15,VRAGAFEHL [5T4 9-mer peptide 67 VRAGAFEHL],0
16,QNRSFEGMV [5T4 9-mer peptide 96 QNRSFEGMV],0
17,ERQNRSFEG [5T4 9-mer peptide 95 ERQNRSFEG],0
18,DEVRAGAFE [5T4 9-mer peptide 66 DEVRAGAFE],0

# Target: T4, MHC class I molecule A*0101 (biotin (bound to streptavidin-coated plate))
# T4 construct: also called A1; HLA-A1
# Assay: iTopia iScore
# Procedure: as §1, §2
row,Binder,iScore
1,RQLDLSHNP [5T4 9-mer peptide 73 RQLDLSHNP],0
2,LDLSHNPLA [5T4 9-mer peptide 74 LDLSHNPLA],0
3,AFSGSNASV [5T4 9-mer peptide 81 AFSGSNASV],0
4,LPSLRQLDL [5T4 9-mer peptide 71 LPSLRQLDL],0
5,LPSLRHLDL [5T4 9-mer peptide 117 LPSLRHLDL],0
6,AFEHLPSLR [5T4 9-mer peptide 69 AFEHLPSLR],0
7,ILNHIVPPE [5T4 9-mer peptide 90 ILNHIVPPE],0
8,HNPLADLSP [5T4 9-mer peptide 76 HNPLADLSP],0
9,VSAPSPLVE [5T4 9-mer peptide 85 VSAPSPLVE],0
10,IVPPEDERQ [5T4 9-mer peptide 92 IVPPEDERQ],0
11,ASVSAPSPL [5T4 9-mer peptide 84 ASVSAPSPL],0
12,PLADLSPFA [5T4 9-mer peptide 77 PLADLSPFA],0
13,ADLSPFAFS [5T4 9-mer peptide 78 ADLSPFAFS],0
14,SPLVELILN [5T4 9-mer peptide 87 SPLVELILN],0
15,GMVVAALLA [5T4 9-mer peptide 99 GMVVAALLA],0
16,EDERQNRSF [5T4 9-mer peptide 94 EDERQNRSF],0
17,VVAALLAGR [5T4 9-mer peptide 100 VVAALLAGR],0
18,SGSNASVSA [5T4 9-mer peptide 82 SGSNASVSA],0

row,Binder,iScore
1,SNASVSAPS [5T4 9-mer peptide 83 SNASVSAPS],0
2,RSFEGMVVA [5T4 9-mer peptide 97 RSFEGMVVA],0
3,NHIVPPEDE [5T4 9-mer peptide 91 NHIVPPEDE],0
4,PPEDERQNR [5T4 9-mer peptide 93 PPEDERQNR],0
5,APSPLVELI [5T4 9-mer peptide 86 APSPLVELI],0
6,FEGMVVAAL [5T4 9-mer peptide 98 FEGMVVAAL],0
7,AGAFEHLPS [5T4 9-mer peptide 68 AGAFEHLPS],0
8,LSHNPLADL [5T4 9-mer peptide 75 LSHNPLADL],0
9,LVELILNHI [5T4 9-mer peptide 88 LVELILNHI],0
10,ELILNHIVP [5T4 9-mer peptide 89 ELILNHIVP],0
11,LSPFAFSGS [5T4 9-mer peptide 79 LSPFAFSGS],0
12,EHLPSLRQL [5T4 9-mer peptide 70 EHLPSLRQL],0
13,SLRQLDLSH [5T4 9-mer peptide 72 SLRQLDLSH],0
14,PFAFSGSNA [5T4 9-mer peptide 80 PFAFSGSNA],0
15,VRAGAFEHL [5T4 9-mer peptide 67 VRAGAFEHL],0
16,QNRSFEGMV [5T4 9-mer peptide 96 QNRSFEGMV],0
17,ERQNRSFEG [5T4 9-mer peptide 95 ERQNRSFEG],0
18,DEVRAGAFE [5T4 9-mer peptide 66 DEVRAGAFE],0

# Source: patent US20090280138A1 (OXFORD BIOMEDICA UK, published 2009)
